These results are taken from PMC11286949, “Structural basis of tRNA recognition by the widespread OB fold”.

In general, IC50 refers to the midpoint of a concentration-inhibition curve.

Series [1] deals with T1, Trbp111 (Aquifex aeolicus, UniProt O66738 1-111). Description: competition FP; vs fluorescein-tRNATyr; FP: 25 mM Tris-HCl pH 7.5, 2 mM MgCl2, 50 mM NaCl (Trbp111) or 150 mM NaCl (Arc1p), room temperature; ITC: 25 mM Tris-HCl pH 7.4, 150 mM NaCl, 2 mM MgCl2, 25 C. Particulars: protein: recombinant, tags: His-MBP removed (PreScission), chain copies: 2.
Series [2] deals with T1, Trbp111. Briefly: competition fluorescence polarization; ITC (Arc1p): 25 mM Tris-HCl pH 7.4, 150 mM NaCl, 2 mM MgCl2, 25 °C. FP and competition FP: 25 mM Tris-HCl pH 7.5, 150 mM NaCl (Arc1p) or 50 mM NaCl (Trbp111), 2 mM MgCl2, room temperature. Particulars: protein: recombinant, tags: His-MBP removed (PreScission), chain copies: 2. On the technique in general: In fluorescence polarisation assays a small probe gives low polarisation when free and higher when bound to something large.

The target of series [3] is T1, Trbp111. Description: competition FP; FP: 25 mM Tris-HCl pH 7.5, 2 mM MgCl2, 50 mM NaCl (Trbp111) or 150 mM NaCl (Arc1p), room temperature; ITC: 25 mM Tris-HCl pH 7.4, 150 mM NaCl, 2 mM MgCl2, 25 C. Particulars: protein: recombinant; tags: His-MBP removed (PreScission); chain copies: 2; hairpin.
Series [4] addresses T2, Arc1p dN (Saccharomyces cerevisiae, UniProt P46672 132-376, del1-131).
T2 sequence: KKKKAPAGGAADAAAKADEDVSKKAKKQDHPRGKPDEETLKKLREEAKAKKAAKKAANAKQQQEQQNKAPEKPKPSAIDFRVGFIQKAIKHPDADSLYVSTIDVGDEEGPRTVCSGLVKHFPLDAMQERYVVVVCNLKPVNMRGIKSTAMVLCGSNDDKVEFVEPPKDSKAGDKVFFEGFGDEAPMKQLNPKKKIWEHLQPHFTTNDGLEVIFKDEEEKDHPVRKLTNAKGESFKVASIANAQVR
Description: competition fluorescence polarization; ITC (Arc1p): 25 mM Tris-HCl pH 7.4, 150 mM NaCl, 2 mM MgCl2, 25 °C. FP and competition FP: 25 mM Tris-HCl pH 7.5, 150 mM NaCl (Arc1p) or 50 mM NaCl (Trbp111), 2 mM MgCl2, room temperature. Particulars: protein: recombinant; tags: His-MBP removed; hairpin.

Series [5] concerns the target T2, Arc1p dN. Briefly: competition FP; FP: 25 mM Tris-HCl pH 7.5, 2 mM MgCl2, 50 mM NaCl (Trbp111) or 150 mM NaCl (Arc1p), room temperature; ITC: 25 mM Tris-HCl pH 7.4, 150 mM NaCl, 2 mM MgCl2, 25 C. Particulars: protein: recombinant; tags: His-MBP removed; hairpin.
Series [6] addresses T2, Arc1p dN. Described as above. Particulars: protein: recombinant; tags: His-MBP removed; hairpin. The source holds these as a separate data set.
Series [7] has as its target T2, Arc1p dN. Briefly: 2AP fluorescence lifetime; 20 uM protein: 5.46 to 6.26 ns; FP: 25 mM Tris-HCl pH 7.5, 2 mM MgCl2, 50 mM NaCl (Trbp111) or 150 mM NaCl (Arc1p), room temperature; ITC: 25 mM Tris-HCl pH 7.4, 150 mM NaCl, 2 mM MgCl2, 25 C. Particulars: protein: recombinant; tags: His-MBP removed; label: 2AP; hairpin.
Series [8] deals with T2, Arc1p dN. Description: 2AP fluorescence lifetime; 20 uM protein: 4.76 to 6.2 ns; FP: 25 mM Tris-HCl pH 7.5, 2 mM MgCl2, 50 mM NaCl (Trbp111) or 150 mM NaCl (Arc1p), room temperature; ITC: 25 mM Tris-HCl pH 7.4, 150 mM NaCl, 2 mM MgCl2, 25 C. Particulars: protein: recombinant; tags: His-MBP removed; label: 2AP; hairpin.
The target in series [9] is T1, Trbp111. Description: 2AP fluorescence lifetime; 60 uM protein: 4.73 to 5.76 ns; FP: 25 mM Tris-HCl pH 7.5, 2 mM MgCl2, 50 mM NaCl (Trbp111) or 150 mM NaCl (Arc1p), room temperature; ITC: 25 mM Tris-HCl pH 7.4, 150 mM NaCl, 2 mM MgCl2, 25 C. Particulars: protein: recombinant; tags: His-MBP removed (PreScission); chain copies: 2; label: 2AP; hairpin.

T1 sequence (O66738 entry or part of it): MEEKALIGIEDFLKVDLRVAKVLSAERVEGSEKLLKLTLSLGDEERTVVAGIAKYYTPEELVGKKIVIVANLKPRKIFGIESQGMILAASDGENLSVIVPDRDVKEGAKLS

B1: ssRNA 3'ACCA (ssRNA)
RNA: CCACUCAGGCCUACCA
With B1, the half-inhibitory concentration (IC50) in series [1] (single strand) worked out at 8.2 ± 0.8 µM; in series [2] (single strand), 8.63 ± 0.796 µM.

B2: MiniH dA73/dC74 (structured_RNA)
RNA: AGGCUUGGGUGGUUCAAGUCCACUCAGGCCUCA
In the case of B2, the binding signal in series [3] was ~3 fold higher affinity than MiniH. Besides, the IC50 in [2] (hairpin) was 2.17 ± 0.151 µM; in series [4] it was 2.78 ± 0.339 µM.

B3: MiniH (structured_RNA)
RNA: AGGCUUGGGUGGUUCAAGUCCACUCAGGCCUACCA
On to B3, for which, in [5], the binding signal is roughly 10 fold weaker than tRNA. Besides, the IC50 in series [1] (hairpin) amounted to 6.5 ± 1 µM; in series [2] (hairpin) it was 5.96 ± 1.02 µM; in series [4] it was 3.69 ± 0.931 µM.

B4: MiniH-ACCG (structured_RNA)
RNA: AGGCUUGGGUGGUUCAAGUCCACUCAGGCCUACCG
In the case of B4, the binding signal in [6] was roughly 2 fold weaker than MiniH. The IC50 in series [4] came out at 7.58 ± 2.9 µM.

B5: MiniH-ACCU (structured_RNA)
RNA: AGGCUUGGGUGGUUCAAGUCCACUCAGGCCUACCU
As for B5, in series [6], the binding signal was roughly 3 fold weaker than MiniH. Further, the IC50 in series [4] stood at 11.8 ± 2.67 µM.

B6: MiniH-ACC-2AP (structured_RNA)
RNA: AGGCUUGGGUGGUUCAAGUCCACUCAGGCCUACCA
modifications: 2-aminopurine at position 76
For B6, the binding result in series [7] is given as “binds”.

B7: MiniH-ACCC (structured_RNA)
RNA: AGGCUUGGGUGGUUCAAGUCCACUCAGGCCUACCC
Consider B7, for which, in [6], the binding signal was roughly 3 fold weaker than MiniH. Besides, in [4], the IC50 is 13.2 ± 4.95 µM.

B8: MiniH-AC-2AP-A (structured_RNA)
RNA: AGGCUUGGGUGGUUCAAGUCCACUCAGGCCUACAA
modifications: 2-aminopurine at position 75
Turning to B8, the binding result in [8] and in series [9] was “binds” throughout.

B9: MicroH (structured_RNA)
RNA: AGGCUUUUCAAGUAGGCCUACCA
As for B9, the binding signal in series [5] is roughly 10 fold weaker than tRNA. Further, the 50% inhibitory concentration (IC50) stood at 7.2 ± 1 µM in [1] (hairpin), 7.32 ± 0.991 µM in series [2] (hairpin) and 4.66 ± 0.769 µM in [4].
